Test results taken from publication PMC10853802, “ESRP1 controls biogenesis and function of a large abundant multiexon circRNA”.
Residue numbers refer to the chain shown, from its start.

Assays:
Settings in all cases: protein: recombinant; tags: His-SUMO removed by Ulp1
ESRP1 qRRM2 Y398A = target: T1, ESRP1 qRRM2 Y398A (human, UniProt Q6NXG1 312-430, Y398A); experiment: ITC; ITC: 100 mM NaCl, 10 mM Tris-HCl pH 8.0, 25 C; 300 uM protein injected into 20 uM RNA
T1 sequence: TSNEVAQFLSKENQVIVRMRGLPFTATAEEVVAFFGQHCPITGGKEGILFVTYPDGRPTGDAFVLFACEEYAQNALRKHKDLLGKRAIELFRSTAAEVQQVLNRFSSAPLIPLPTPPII

ESRP1 qRRM2 F335A = target: T2, ESRP1 qRRM2 F335A (human, UniProt Q6NXG1 312-430, F335A); experiment: as above
T2 sequence: T1 sequence with F24A, A87Y

ESRP1 qRRM2 R397A = target: T3, ESRP1 qRRM2 R397A (human, UniProt Q6NXG1 312-430, R397A); experiment: as above
T3 sequence: T1 sequence with R86A, A87Y

ESRP1 qRRM2 WT = target: T4, ESRP1 qRRM2 WT (human, UniProt Q6NXG1 312-430); experiment: X-ray crystallography (1.65 A); ITC: 100 mM NaCl, 10 mM Tris-HCl pH 8.0, 25 C; 300 uM protein injected into 20 uM RNA
T4 sequence: T1 sequence with A87Y

UGGUGG (ssRNA) [6-mer RNA]: no binding (ESRP1 qRRM2 Y398A); no binding (ESRP1 qRRM2 F335A); no binding (ESRP1 qRRM2 R397A).

UGGUGGUGGUGG (ssRNA) [12-mer RNA]: binds (ESRP1 qRRM2 WT).
